Results taken from US20250326840A1 (QURE BIOTECHNOLOGY SHANGHAI, published 2025).
Where a chain is given by its changes, count along the chain named. Like-named read-outs stand apart in the source and are kept apart here.

Tests used:
[1] = biological target: SIRPα V7 fusion Fc (mouse IgG2a) (human); experiment: ELISA, SIRPα V7-mouse IgG2a Fc coated, anti-hFab detection
[2] = biological target: SIRPα V8 fusion Fc (mouse IgG2a) (human); experiment: ELISA, SIRPα V8-mouse IgG2a Fc coated, anti-hFab detection
Sequence of SIRPα V8 fusion Fc (mouse IgG2a) (human) (chain, as listed by the source limits assumed): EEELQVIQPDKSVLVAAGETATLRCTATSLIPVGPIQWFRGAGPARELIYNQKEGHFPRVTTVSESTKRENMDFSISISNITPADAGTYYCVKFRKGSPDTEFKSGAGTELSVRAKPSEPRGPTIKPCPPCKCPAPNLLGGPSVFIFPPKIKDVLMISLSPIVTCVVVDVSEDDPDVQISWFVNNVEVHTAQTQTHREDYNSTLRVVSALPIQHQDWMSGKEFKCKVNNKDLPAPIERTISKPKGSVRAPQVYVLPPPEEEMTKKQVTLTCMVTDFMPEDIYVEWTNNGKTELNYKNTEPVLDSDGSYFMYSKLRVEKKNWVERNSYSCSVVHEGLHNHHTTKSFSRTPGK

[3] = biological target: SIRPα V10 fusion Fc (mouse IgG2a) (human); experiment: ELISA, SIRPα V10-mouse IgG2a Fc coated, anti-hFab detection; unit from the x axis; the curve is flat at the baseline, the fit is marked ambiguous (~)
Sequence of SIRPα V10 fusion Fc (mouse IgG2a) (human) (chain, as listed by the source limits assumed): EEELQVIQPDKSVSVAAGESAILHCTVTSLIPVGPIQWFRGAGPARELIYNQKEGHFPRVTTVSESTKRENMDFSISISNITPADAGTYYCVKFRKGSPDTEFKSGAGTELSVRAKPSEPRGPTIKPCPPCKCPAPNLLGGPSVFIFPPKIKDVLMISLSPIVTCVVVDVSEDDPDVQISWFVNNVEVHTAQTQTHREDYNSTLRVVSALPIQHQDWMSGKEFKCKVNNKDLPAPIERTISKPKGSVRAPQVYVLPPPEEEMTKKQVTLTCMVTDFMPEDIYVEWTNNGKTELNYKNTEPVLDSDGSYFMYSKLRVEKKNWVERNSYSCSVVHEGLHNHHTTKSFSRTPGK

[4] = biological target: T1, QP098 (cyno SIRPα (I7G9Z7) ECD(E31-R369)-flag-his) (cynomolgus); experiment: SPR, Biacore
T1 construct: the construct carries flag and his tags; also called cynoSIRPα (ECD); cynomolgus SIRPα
T1 chain: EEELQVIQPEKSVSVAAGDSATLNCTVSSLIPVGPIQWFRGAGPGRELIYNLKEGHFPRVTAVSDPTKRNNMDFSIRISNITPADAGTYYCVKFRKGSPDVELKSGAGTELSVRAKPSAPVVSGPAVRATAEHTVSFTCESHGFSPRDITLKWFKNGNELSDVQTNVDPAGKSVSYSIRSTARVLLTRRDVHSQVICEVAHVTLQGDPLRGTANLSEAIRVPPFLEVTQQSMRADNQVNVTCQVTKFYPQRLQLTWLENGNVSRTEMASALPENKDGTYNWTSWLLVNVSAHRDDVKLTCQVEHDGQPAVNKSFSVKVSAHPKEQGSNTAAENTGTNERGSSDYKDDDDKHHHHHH

[5] = biological target: T2, QP271 (rhesus SIRPα1-flag-his T-557-28) (rhesus monkey); experiment: SPR, Biacore
T2 construct: also called rhesus monkey SIRPα (QP271); monkeySIRPα1-flag-his
T2 chain: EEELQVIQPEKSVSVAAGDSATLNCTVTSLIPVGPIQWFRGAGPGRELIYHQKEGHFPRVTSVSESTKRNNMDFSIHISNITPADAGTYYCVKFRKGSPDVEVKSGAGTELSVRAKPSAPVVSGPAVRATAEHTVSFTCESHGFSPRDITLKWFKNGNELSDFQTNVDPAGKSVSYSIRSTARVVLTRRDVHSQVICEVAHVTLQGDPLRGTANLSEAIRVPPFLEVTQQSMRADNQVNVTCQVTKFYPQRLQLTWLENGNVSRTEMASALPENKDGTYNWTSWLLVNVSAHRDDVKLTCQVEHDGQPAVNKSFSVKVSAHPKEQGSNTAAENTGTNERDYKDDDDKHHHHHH

[6] = biological target: T3, QP273 (cynoSIRPα2-flag-his T-557-14) (cynomolgus); experiment: SPR, Biacore
T3 construct: also called cynomolgus SIRPα (QP273)
T3 chain: T2 chain with D19E, V27A, A42V, H51S, S62P, E65D, S66P, H77R, V103L

[7] = biological target: T1, QP098 (cyno SIRPα (I7G9Z7) …); experiment: binding ELISA, antigen coated
[8] = biological target: T4, QP100 (cyno SIRPα (G7PGS8) ECD(E29-R368)-flag-his) (cynomolgus); experiment: binding ELISA, antigen coated
T4 construct: the construct carries flag and his tags; also called cynoSIRPα-flag-his; Cynomolgus SIRPα (QP100)
T4 chain: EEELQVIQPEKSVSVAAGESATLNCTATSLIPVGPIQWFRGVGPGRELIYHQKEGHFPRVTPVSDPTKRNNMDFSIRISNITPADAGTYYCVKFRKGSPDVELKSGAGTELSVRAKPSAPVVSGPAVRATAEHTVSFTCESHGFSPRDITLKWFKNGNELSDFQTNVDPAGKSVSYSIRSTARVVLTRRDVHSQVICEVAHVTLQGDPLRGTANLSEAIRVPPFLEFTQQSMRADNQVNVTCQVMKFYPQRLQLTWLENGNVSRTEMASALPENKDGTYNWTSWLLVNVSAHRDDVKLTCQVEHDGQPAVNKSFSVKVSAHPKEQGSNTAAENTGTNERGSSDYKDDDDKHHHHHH

[9] = biological target: T2, QP271 (rhesus SIRPα1-flag-his T-557-28); experiment: binding ELISA, antigen coated
[10] = biological target: T3, QP273 (cynoSIRPα2-flag-his T-557-14); experiment: binding ELISA, antigen coated
[11] = biological target: T5, QP002 (biotinylated in the blocking assays, sites not given); experiment: blocking ELISA: CD47 FC (QP001) coated, biotin SIRPα-FC (QP002) mixed with the antibody, HRP-streptavidin; blocked ligand: CD47; unit from the x axis Log(Conc.(nM))
T5 construct: also called SIRPα-FC; Biotin-QP002
T5 sequence (SIRPα-Fc fusion chain, as listed by the source): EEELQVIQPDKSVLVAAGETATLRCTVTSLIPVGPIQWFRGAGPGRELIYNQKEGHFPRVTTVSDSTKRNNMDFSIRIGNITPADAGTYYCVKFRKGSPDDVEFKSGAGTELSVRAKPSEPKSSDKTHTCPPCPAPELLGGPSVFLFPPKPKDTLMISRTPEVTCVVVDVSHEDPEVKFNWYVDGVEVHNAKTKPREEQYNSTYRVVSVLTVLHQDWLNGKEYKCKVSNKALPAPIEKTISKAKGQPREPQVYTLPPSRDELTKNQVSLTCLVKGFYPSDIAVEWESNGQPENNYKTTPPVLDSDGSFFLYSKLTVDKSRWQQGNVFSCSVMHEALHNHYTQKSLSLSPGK

[12] = biological target: T6, QP094 (human SIRPα V1 ECD(E31-R370)-flag-his) (human, UniProt P78324 31-370); experiment: SPR, Biacore 8K
T6 construct: the construct carries flag and his tags; also called SIRPαV1-flag-his; SIRPαV1-his (QP094)

[13] = biological target: T6, QP094 (human SIRPα V1 …); experiment: SPR, Biacore 8K; remark: listed apart in the source
[14] = biological target: T7, QP096 (human SIRPα V2 ECD(E31-R370)-flag-his) (human); experiment: SPR, Biacore 8K
T7 construct: the construct carries flag and his tags; also called SIRPαV2-Flag-his; Human SIRPα V2 (QP096)

[15] = biological target: QP003 (PDL1-his); experiment: ELISA, QP003 (PDL1-his) captured on coated anti-his, anti-hFc detection; unit from the x axis; no rising curve is seen for it, the fit is marked ambiguous (~)
Sequence of QP003 (PDL1-his) (chain, as listed by the source limits assumed): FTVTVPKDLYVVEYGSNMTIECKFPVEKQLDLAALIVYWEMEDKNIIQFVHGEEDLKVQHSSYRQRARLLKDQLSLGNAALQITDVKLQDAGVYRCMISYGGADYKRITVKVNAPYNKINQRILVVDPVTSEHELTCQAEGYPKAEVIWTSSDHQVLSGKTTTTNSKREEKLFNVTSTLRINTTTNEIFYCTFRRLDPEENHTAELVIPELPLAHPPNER

Sequence of SIRPα V7 fusion Fc (mouse IgG2a) (human) (chain, as listed by the source limits assumed): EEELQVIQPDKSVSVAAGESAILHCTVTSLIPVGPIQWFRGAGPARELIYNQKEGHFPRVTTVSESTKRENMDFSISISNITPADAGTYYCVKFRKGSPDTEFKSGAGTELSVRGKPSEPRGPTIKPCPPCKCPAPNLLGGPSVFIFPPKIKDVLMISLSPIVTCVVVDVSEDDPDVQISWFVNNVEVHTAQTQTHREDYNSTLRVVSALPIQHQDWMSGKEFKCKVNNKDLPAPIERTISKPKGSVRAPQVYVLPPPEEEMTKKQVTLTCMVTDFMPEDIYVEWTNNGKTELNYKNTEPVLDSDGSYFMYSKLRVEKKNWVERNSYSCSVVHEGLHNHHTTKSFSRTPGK

B1: QP250251 (18D5 analog) (antibody, human IgG4 S228P, kappa, V domains shown)
VH: QVQLQQPGAELVRPGSSVKLSCKASGYTFTSYWVHWVKQRPIQGLEWIGNIDPSDSDTHYNQKFKDKASLTVDKSSSTAYMQLSSLTFEDSAVYYCVRGGTGTMAWFAYWGQGTLVTVSA
VL: DVVMTQTPLSLPVSLGDQASISCRSSQSLVHSYGNTYLYWYLQKPGQSPKLLIYRVSNRFSGVPDRFSGSGSGTDFTLKISRVEAEDLGVYFCFQGTHVPYTFGSGTKLEIKR
notes: also called SIRPα antibody 18D5 from OSE
[1]
  binding result: no binding (tested: about 67 nM (last point at log 1.8))
[2]
  binding result: no binding (tested: about 67 nM (last point at log 1.8))
[3]
  EC50: ~0.0554 nM

B2: QP256279 (antibody, human IgG4, V domains shown)
VH: QVQLVQSGAEVKKPGASVKVSCKASGYTFTNYWINWVRQAPGQGLEWIAMIDPSDSETHYNQIFKDRATLTTDTSTSTAYMELRSLRSDDTAVYYCAMDYGSLYAMDYWGRGTLVTVSS
VL: DIVLTQSPDSLAVSLGERATINCRASQSVRSSGYNWIFWYQQKPGQPPKLLIYLASNRDSGVPDRFSGSGSGTDFTLTISSLQAEDVAVYYCQHSRELPTFGQGTKLEIK
notes: Human IgG4 heavy constant region and kappa CL
[4]
  Kd: 1.56 nM
[5]
  Kd: 0.441 nM
[6]
  Kd: 0.918 nM
[7]
  EC50: 0.619 ng/mL
[8]
  EC50: 0.558 ng/mL
[9]
  EC50: 0.601 ng/mL
[10]
  EC50: 0.721 ng/mL

B3: QP32700279 (antibody, human IgG1, kappa, L234A L235A, V domains shown)
VH: B2 VH
VL: DIVLTQSPDSLAVSLGERATINCRASQSVRSSGYNWIFWYQQKPGQPPKLLIYLASNRDSGVPDRFSGSGSGTDFTLTISSLQAEDVAVYYCQHSRELPTFGQGTKLEIKR
notes: also called SIRPα monoclonal antibody CHO71
[11]
  IC50: 0.208 nM

B4: QP026249 (KWAR23 analog) (antibody, human IgG4 S228P, kappa)
heavy: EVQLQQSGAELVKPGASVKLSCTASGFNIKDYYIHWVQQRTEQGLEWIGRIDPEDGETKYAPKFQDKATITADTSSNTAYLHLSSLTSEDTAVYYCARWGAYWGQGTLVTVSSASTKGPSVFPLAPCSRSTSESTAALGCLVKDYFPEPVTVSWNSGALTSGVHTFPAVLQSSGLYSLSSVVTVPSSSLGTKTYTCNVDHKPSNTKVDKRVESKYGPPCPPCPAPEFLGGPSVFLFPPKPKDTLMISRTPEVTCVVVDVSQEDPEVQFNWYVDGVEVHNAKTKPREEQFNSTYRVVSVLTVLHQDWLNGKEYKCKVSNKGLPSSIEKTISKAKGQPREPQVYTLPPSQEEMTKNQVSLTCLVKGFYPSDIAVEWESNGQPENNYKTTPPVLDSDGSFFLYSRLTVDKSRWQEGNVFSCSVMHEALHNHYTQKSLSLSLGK
light: QIVLTQSPAIMSASPGEKVTLTCSASSSVSSSYLYWYQQKPGSSPKLWIYSTSNLASGVPARFSGSGSGTSYSLTISSMEAEDAASYFCHQWSSYPRTFGAGTKLELKRTVAAPSVFIFPPSDEQLKSGTASVVCLLNNFYPREAKVQWKVDNALQSGNSQESVTEQDSKDSTYSLSSTLTLSKADYEKHKVYACEVTHQGLSSPVTKSFNRGEC
notes: also called KAWA23 analog; control antibody KWAR23 (QP026249), human IgG4
[12]
  Kd: 4.7 nM
  koff: 0.00386 s⁻¹
  kon: 822000 M⁻¹ s⁻¹
[13]
  Kd: 4.69 nM
  koff: 0.00386 s⁻¹
  kon: 822000 M⁻¹ s⁻¹
[14]
  Kd: 17.5 nM
  koff: 0.0242 s⁻¹
  kon: 1.38e+06 M⁻¹ s⁻¹
[15]
  EC50: ~0.000685 nM
